Measurements taken from patent US20230383012A1 (published 2023).
Changes are numbered by the printed parent chain. Each block holds one binder with its values, some of them ahead of it.

Tests used:
XPL2-BC-16G11-hIgG1 = assay: Biacore
XPL2-BC-12B7-hIgG1 = assay: Biacore
XPL2-BC-12A11-hIgG1 = assay: Biacore
XPL2-BC-1G10-hIgG1 = assay: Biacore
XPL2-BC-9H4-hIgG1 = assay: Biacore
XPL2-BC-12B9-hIgG1 = assay: Biacore
XPL2-BC-8H11-hIgG1 = assay: Biacore
XPL2-BC-8F4-hIgG1 = assay: Biacore
XPL2-BC-5F1-hIgG1 = assay: Biacore
XPL2-BC-12B2-hIgG1 = assay: Biacore
XPL2-BC-13G1-hIgG1 = assay: Biacore
XPL2-BC-8G5-hIgG1 = assay: Biacore
XPL2-BC-8G2-hIgG1 = assay: Biacore
XPL2-BC-1E12-hIgG1 = assay: Biacore
XPL2-BC-3A9-hIgG1 = assay: Biacore
XPL2-BC-12A6-hIgG1 = assay: Biacore
XPL2-BC-6H10-hIgG1 = assay: Biacore
XPL2-BC-12B12-hIgG1 = assay: Biacore
XPL2-BC-5F2-hIgG1 = assay: Biacore
XPL2-BC-5C11-hIgG1 = assay: Biacore
XPL2-BC-7D3-hIgG1 = assay: Biacore
XPL2-BC-7D1-hIgG1 = assay: Biacore
XPL2-BC-7B10-hIgG1 = assay: Biacore
XPL2-BC-5B6-hIgG1 = assay: Biacore
XPL2-BC-10H5-hIgG1 = assay: Biacore
XPL2-BC-8H8-hIgG1 = assay: Biacore
XPL2-BC-7E9-hIgG1 = assay: Biacore
human CD28 antigen = human CD28 antigen (human, UniProt P10747 19-152); assay: Octet; VHVL
Human PDL1 = Human PDL1 (human, UniProt Q9NZQ7 19-238); assay: Biacore; EXP1
Cyno PDL1 = assay: Biacore; EXP1

B2: H1.1_L1.71 (antibody, V domains shown)
VH: EVQLLESGGGLVQPGGSLRLSCAASGFTFPSRDMSWVRQAPGKRLEWVSTISSGGSFTHYPDSVKGRFTISRDNSKNTLYLQMNSLRAEDTAVYYCVRRSGDWYFDVWGAGTTVTVSS
VL: EIVLTQSPGTLSLSPGERATLSCRVSSSIQSTNLHWYQQKPGQSPRPLIYGTSTLATGVPVRFSGSGSGTDYTLTISRLEPEDFAVYYCQQWSSYPLYTFGGGTKVEIK
Kd (human CD28 antigen): 96 nM

B4: H1L1 (antibody, V domains shown)
VH: B2 VH with P30S, R32Y
VL: B2 VL with Q30S, T32S, T54N, T57S
Kd (human CD28 antigen): 1000 nM

B5: H1.1_L1 (antibody, V domains shown)
VH: B2 VH
VL: B2 VL with Q30S, T32S, T54N, T57S
Kd (human CD28 antigen): 600 nM

Next, values leading:

Kd (XPL2-BC-16G11-hIgG1): 0.491 nM
Kd (XPL2-BC-12B7-hIgG1): 8.44 nM
Kd (XPL2-BC-12A11-hIgG1): 21.8 nM
Kd (XPL2-BC-1G10-hIgG1): 5.87 nM
Kd (XPL2-BC-9H4-hIgG1): 73.2 nM
Kd (XPL2-BC-12B9-hIgG1): 5.88 nM
Kd (XPL2-BC-8H11-hIgG1): 0.525 nM
Kd (XPL2-BC-8F4-hIgG1): 7.13 nM
Kd (XPL2-BC-5F1-hIgG1): 12.5 nM
Kd (XPL2-BC-12B2-hIgG1): 15.1 nM
Kd (XPL2-BC-13G1-hIgG1): 5.1 nM
Kd (XPL2-BC-8G5-hIgG1): 1.09 nM
Kd (XPL2-BC-8G2-hIgG1): 0.39 nM
Kd (XPL2-BC-1E12-hIgG1): 80.7 nM
Kd (XPL2-BC-3A9-hIgG1): 192 nM
Kd (XPL2-BC-12A6-hIgG1): 303 nM
Kd (XPL2-BC-6H10-hIgG1): 6.02 nM
Kd (XPL2-BC-12B12-hIgG1): 73.7 nM
Kd (XPL2-BC-5F2-hIgG1): 11.6 nM
Kd (XPL2-BC-5C11-hIgG1): 1.77 nM
Kd (XPL2-BC-7D3-hIgG1): 1.49 nM
Kd (XPL2-BC-7D1-hIgG1): 5.66 nM
Kd (XPL2-BC-7B10-hIgG1): 1.77 nM
Kd (XPL2-BC-5B6-hIgG1): 0.765 nM
Kd (XPL2-BC-10H5-hIgG1): 64.9 nM
Kd (XPL2-BC-8H8-hIgG1): 3.75 nM
Kd (XPL2-BC-7E9-hIgG1): 0.25 nM
B1: PDL2 (ligand)
chain: LFTVTVPKELYIIEHGSNVTLECNFDTGSHVNLGAITASLQKVENDTSPHRERATLLEEQLPLGKASFHIPQVQVRDEGQYQCIIIYGVAWDYKYLTLKVKASYRKINTHILKVPETDEVELTCQATGYPLAEVSWPNVSVPANTSHSRTPEGLYQVTSVLRLKPPPGRNFSCVFWNTHVRELTLASIDLQSQMEPRTHPT

Kd (human CD28 antigen): 180 nM
B3: H1_L1.71 (antibody, V domains shown)
VH: B2 VH with P30S, R32Y
VL: B2 VL

Kd (Human PDL1): 2.6 nM
Kd (Cyno PDL1): 2.2 nM
B6: XENP 37559 (H1L1) (bispecific antibody)
chain 1: EVQLLESGGGLVQPGGSLRLSCAASGFTFSSYDMSWVRQAPGKRLEWVSTISSGGSFTHYPDSVKGRFTISRDNSKNTLYLQMNSLRAEDTAVYYCVRRSGDWYFDVWGAGTTVTVSSASTKGPSVFPLAPSSKSTSGGTAALGCLVKDYFPEPVTVSWNSGALTSGVHTFPAVLQSSGLYSLSSVVTVPSSSLGTQTYICNVNHKPSDTKVDKKVEPKSCDKTHTCPPCPAPPVAGPSVFLFPPKPKDTLMISRTPEVTCVVVDVKHEDPEVKFNWYVDGVEVHNAKTKPREEEYNSTYRVVSVLTVLHQDWLNGKEYKCKVSNKALPAPIEKTISKAKGQPREPQVYTLPPSREEMTKNQVSLTCDVSGFYPSDIAVEWESDGQPENNYKTTPPVLDSDGSFFLYSKLTVDKSRWEQGDVFSCSVMHEALHNHYTQKSLSLSPGK
chain 2: not shown
chain 3: EIVLTQSPGTLSLSPGERATLSCRVSSSISSSNLHWYQQKPGQSPRPLIYGTSNLASGVPVRFSGSGSGTDYTLTISRLEPEDFAVYYCQQWSSYPLYTFGGGTKVEIKRTVAAPSVFIFPPSDEQLKSGTASVVCLLNNFYPREAKVQWKVDNALQSGNSQESVTEQDSKDSTYSLSSTLTLSKADYEKHKVYACEVTHQGLSSPVTKSFNRGEC
